Data set [1] deals with T1, IL-23 (p19/p40 heterodimer) (Homo sapiens, UniProt P29460;Q9NPF7 P29460:23-328,Q9NPF7:20-189). As to the kind of experiment: FP. Conditions: label: 5'-32P.
Data set [2] deals with T1, IL-23 (p19/p40 heterodimer). Nature of the data set: filter; dot blot nitrocellulose; Dulbecco's PBS with Ca2+ and Mg2+, 0.1 mg/mL BSA, room temp 30 min. As to conditions: label: 5'-32P. On the procedure: Aptamer binding affinity determination. Trace 5′-³²P-labeled aptamers were combined with protein (IL-23 or IL-12) at various concentrations and incubated at room temperature for 30 minutes in Dulbecco's PBS (PBS plus Ca²⁺, Mg²⁺) plus 0.1 mg/mL BSA. Each titration curve was tested in duplicate. The reactions were then added to a dot blot apparatus (Minifold-1 Dot Blot, Acrylic, Schleicher and Schuell, Keene, N.H.), assembled (from top to bottom) with Protran nitrocellulose (Schleicher and Schuell, Keene, N.H.), Hybond-P nylon (Amersham Biosciences, Piscataway, N.J.) and GB002 gel blot paper (Schleicher and Schuell, Keene, NH). Aptamers bound to protein are retained on the nitrocellulose filter, whereas the non-protein bound RNA is captured on the nylon filter. The extent of aptamer capture on each filter was quantitated using a Phosphoimager (Molecular Dynamics). Equilibrium dissociation constants (KD) were calculated using the equation: […]
FIGS. 3 and 4 show the comparison of the aptamer binding curves (in duplicate) to cynomolgus IL-23, cynomolgus IL-12, and human IL-23.

T1 sequence (P29460 23-328, chain 1 of 2): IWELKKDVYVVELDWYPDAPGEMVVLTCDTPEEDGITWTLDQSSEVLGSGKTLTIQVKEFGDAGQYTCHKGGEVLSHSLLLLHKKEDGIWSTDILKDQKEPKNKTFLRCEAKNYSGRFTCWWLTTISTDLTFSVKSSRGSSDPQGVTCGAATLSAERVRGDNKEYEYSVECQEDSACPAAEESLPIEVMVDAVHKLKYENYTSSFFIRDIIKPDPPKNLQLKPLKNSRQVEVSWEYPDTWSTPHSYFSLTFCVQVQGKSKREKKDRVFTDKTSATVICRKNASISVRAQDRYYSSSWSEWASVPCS
T1 sequence (Q9NPF7 20-189, chain 2 of 2): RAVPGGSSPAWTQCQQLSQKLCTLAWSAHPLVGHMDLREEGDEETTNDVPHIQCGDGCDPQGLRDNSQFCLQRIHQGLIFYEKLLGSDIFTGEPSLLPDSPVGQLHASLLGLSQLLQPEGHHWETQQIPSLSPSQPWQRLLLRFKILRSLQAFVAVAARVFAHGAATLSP

B1: ARC1623 (mixed)
RNA: ACAGGCAAGUAAUUGGGGAGUGCGGGCGGGGUGU
modifications: 2'-OMe at all C and all U and at G16, G17, G24, G25, G30, G31; all other nucleotides 2'-deoxy (all A deoxy); PS after positions 17, 18, 19, 21; 3' inverted dT
As for B1, the Kd – broadly, the free concentration of one partner at which half of the binding sites on the other are occupied at equilibrium, for simple one-to-one binding – in data set [1] was 0.25 nM.

B2: ARC1626 (mixed)
RNA: B1 RNA
modifications: 2'-OMe at all C and all U and at G16, G17, G24, G25, G30, G31; all other nucleotides 2'-deoxy (all A deoxy); PS after positions 2, 3, 4, 6, 7, 8, 10, 11, 14, 17, 18, 19, 21, 25, 27, 28, 32; 3' inverted dT
In data set [2], B2 gave a dissociation constant Kd of 0.15 nM.

For the origin of these results see patent US20090142855, “Polynucleotides and Polypeptides of the IL-12 Family of Cytokines” (published 2009).
